Laboratory results reported in article PMC4972676 (Structure (London, England : 1993), 2016).
One block for each binder: values may come before it.

What was measured:
[1] = target: hRpn13 pleckstrin-like receptor for ubiquitin (Pru) domain (human, UniProt Q16186 1-150); assay: ITC
M1 diubiquitin = M1 diubiquitin (UniProt P0CG48 1-76; P0CG48 1-76); assay: pull-down

hRpn13 pleckstrin-like receptor for ubiquitin (Pru) domain, sequence (Q16186 1-150): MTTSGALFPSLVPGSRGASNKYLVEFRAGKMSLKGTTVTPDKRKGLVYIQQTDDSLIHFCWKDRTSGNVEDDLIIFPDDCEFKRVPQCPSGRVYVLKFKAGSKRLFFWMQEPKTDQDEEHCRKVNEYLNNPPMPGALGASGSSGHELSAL

Kd [1]: 9.3 ± 0.5 µM
B1: hPLIC2 ubiquitin-like (UBL) domain (domain or fragment, human, UniProt Q9UHD9 33-107, looked up)
chain: IKVTVKTPKEKEEFAVPENSSVQQFKEAISKRFKSQTDQLVLIFAGKILKDQDTLIQHGIHDGLTVHLVIKSQNR

binding result (M1 diubiquitin): binds
B2: GST-hRpn13^Pru (domain or fragment, human)
chain: TTSGALFPSLVPGSRGASNKYLVEFRAGKMSLKGTTVTPDKRKGLVYIQQTDDSLIHFCWKDRTSGNVEDDLIIFPDDCEFKRVPQCPSGRVYVLKFKAGSKRLFFWMQEPKTDQDEEHCRKVNEYLNNPPMPGALGASGSSGHELSAL
